In patent publication US20230357370A1 one finds CD4+ CD8- splenic T cells: % cytokine-positive, TNFa+ (intracellular cytokine immunofluorescence) and CD8+ CD4- splenic T cells: % cytokine-positive, IFNg+ (intracellular cytokine immunofluorescence) data, which are given here for 6 substances.

Experiment [1] deals with RSV F peptide 51-66 (respiratory syncytial virus, A2 strain).
Experiment [2] addresses RSV F peptides F85-93 and F249-258 (respiratory syncytial virus, A2 strain).

In experiment [1], “splenic T cells of BALB/c mice vaccinated with A317 RNA in liposomes RV01(01) (cells without a defined receptor)” gave a CD4+ CD8- splenic T cells: % cytokine-positive, TNFa+ (intracellular cytokine immunofluorescence) of 0.09%. In addition, the CD8+ CD4- splenic T cells: % cytokine-positive, IFNg+ (intracellular cytokine immunofluorescence) in experiment [2] worked out at 3.69%.
Substance “splenic T cells of BALB/c mice vaccinated with A317 RNA formulated with CNE17 (cells without a defined receptor)” had a CD4+ CD8- splenic T cells: % cytokine-positive, TNFa+ (intracellular cytokine immunofluorescence) in experiment [1] of 0.05%. In experiment [2], this substance had a CD8+ CD4- splenic T cells: % cytokine-positive, IFNg+ (intracellular cytokine immunofluorescence) of 1.25%.
“splenic T cells of unvaccinated BALB/c mice (cells without a defined receptor)” came in with a CD4+ CD8- splenic T cells: % cytokine-positive, TNFa+ (intracellular cytokine immunofluorescence) in experiment [1] of 0%. In experiment [2], the CD8+ CD4- splenic T cells: % cytokine-positive, IFNg+ (intracellular cytokine immunofluorescence) was 0.01%.
“splenic T cells of BALB/c mice vaccinated with VRPs expressing RSV-F (cells without a defined receptor)” displayed a CD4+ CD8- splenic T cells: % cytokine-positive, TNFa+ (intracellular cytokine immunofluorescence) in experiment [1] of 0.1%. Also, the CD8+ CD4- splenic T cells: % cytokine-positive, IFNg+ (intracellular cytokine immunofluorescence) in experiment [2] was 3.48%.
For the substance “splenic T cells of BALB/c mice vaccinated with A317 RNA delivered using electroporation (cells without a defined receptor)”, in experiment [1], the CD4+ CD8- splenic T cells: % cytokine-positive, TNFa+ (intracellular cytokine immunofluorescence) came out at 0.05%. This substance had a CD8+ CD4- splenic T cells: % cytokine-positive, IFNg+ (intracellular cytokine immunofluorescence) in experiment [2] of 0.85%.
For “splenic T cells of BALB/c mice vaccinated with naked self-replicating RNA A317 (cells without a defined receptor)” the same measures were 0.03% and 0.74%.
